Experimental data: article PMC4624033
Values belong to the substance of their own block, whether it stands above or below them.

Assays:
Assay in all cases: AUC
[1] = target: PcdhγC5 EC1-EC6 S116R (mouse)
[2] = target: PcdhγA8 EC2-EC6 (mouse)
[3] = target: PcdhγC5 EC1-EC6 (complete ectodomain) (mouse)
[4] = target: PcdhγB6 EC1-EC6 (complete ectodomain)
[5] = target: PcdhγC5 EC2-EC6 S116R (mouse)
[6] = target: PcdhαC2 EC1-EC6 (complete ectodomain) (mouse)
[7] = target: PcdhαC2 EC2-EC6 (mouse)
[8] = target: PcdhαC2 EC1-EC5 (mouse)
[9] = target: PcdhγB6 EC1-EC4
[10] = target: PcdhγC5 EC1-EC5 (mouse)
[11] = target: Pcdhα7 EC1-EC5 (mouse)
[12] = target: PcdhαC2 EC1-EC6 S118R (mouse)
[13] = target: PcdhγA8 EC1-EC4 (mouse)
[14] = target: PcdhαC2 EC1-EC4 (mouse)
[15] = target: PcdhγC5 EC2-EC6 (mouse)

Kd [1]: 5.7 µM
stoichiometry N [1]: 2
Substance: PcdhγC5 EC1-EC6 S116R (domain or fragment)

Kd [2]: 23 µM
stoichiometry N [2]: 2
Substance: PcdhγA8 EC2-EC6 (domain or fragment)

stoichiometry N [3]: 4
Substance: PcdhγC5 EC1-EC6 (complete ectodomain) (domain or fragment)

stoichiometry N [4]: 4
Substance: PcdhγB6 EC1-EC6 (complete ectodomain) (domain or fragment)

Kd [5]: 14 µM
stoichiometry N [5]: 2
Substance: PcdhγC5 EC2-EC6 S116R (domain or fragment)

Kd [6]: 100 nM
stoichiometry N [6]: 4
Substance: PcdhαC2 EC1-EC6 (complete ectodomain) (domain or fragment)

stoichiometry N [7]: 2
Substance: PcdhαC2 EC2-EC6 (domain or fragment)

Kd [8]: 5.9 µM
stoichiometry N [8]: 2
Substance: PcdhαC2 EC1-EC5 (domain or fragment)

Kd [9]: 29 µM
stoichiometry N [9]: 2
Substance: PcdhγB6 EC1-EC4 (domain or fragment)

Kd [10]: 100 µM
stoichiometry N [10]: 2
Substance: PcdhγC5 EC1-EC5 (domain or fragment)

Kd [11]: 2900 nM
stoichiometry N [11]: 2
Substance: Pcdhα7 EC1-EC5 (domain or fragment)

Kd [12]: 1800 nM
stoichiometry N [12]: 4
Substance: PcdhαC2 EC1-EC6 S118R (domain or fragment)

Kd [13]: 30 µM
stoichiometry N [13]: 2
Substance: PcdhγA8 EC1-EC4 (domain or fragment)

Kd [14]: 20 µM
stoichiometry N [14]: 2
Substance: PcdhαC2 EC1-EC4 (domain or fragment)

stoichiometry N [15]: 2
Substance: PcdhγC5 EC2-EC6 (domain or fragment)
